One test addresses T1, HLA-A*02:01 (human).
T1 construct: MHC monomers captured on streptavidin plates; the UV-sensitive peptide is cleaved and exchanged with the test peptide; also called peptide-receptive MHC molecules; MHC class I
As to the kind of experiment: UV ligand-exchange ELISA (anti-b2m); ++ = exchange yield >=20%. The text has this: Candidate peptides for T cell based therapies according to the present invention were further tested for their MHC binding capacity (affinity). The individual peptide-MHC complexes were produced by UV-ligand exchange, where a UV-sensitive peptide is cleaved upon UV-irradiation, and exchanged with the peptide of interest as analyzed. Only peptide candidates that can effectively bind and stabilize the peptide-receptive MHC molecules prevent dissociation of the MHC complexes. To determine the yield of the exchange reaction, an ELISA was performed based on the detection of the light chain (β2m) of stabilized MHC complexes. The assay was performed as generally described in Rodenko et al. (Rodenko et al., 2006).
96 well MAXISorp plates (NUNC) were coated over night with 2 ug/ml streptavidin in PBS at room temperature, washed 4× and blocked for 1 h at 37° C. in 2% BSA containing blocking buffer. Refolded HLA-A*02:01/MLA-001 monomers served as standards, covering the range of 15-500 ng/ml. Peptide-MHC monomers of the UV-exchange reaction were diluted 100 fold in blocking buffer. Samples were incubated for 1 h at 37° C., washed four times, incubated with 2 ug/ml HRP conjugated anti-β2m for 1 h at 37° C., washed again and detected with TMB solution that is stopped with […]. Absorption was measured at 450 nm. Candidate peptides that show a high exchange yield (preferably higher than 50%, most preferred higher than 75%) are generally preferred for a generation and production of antibodies or fragments thereof, and/or T cell receptors or fragments thereof, as they show sufficient avidity to the MHC molecules and prevent dissociation of the MHC complexes.
(An ELISA detects its analyte on a solid surface through an enzyme-linked reagent.)
In turn, VVAAHLAGA came in with a peptide exchange yield of 20 to 50%. On the same count and under the same terms, with TLLEGISRA (also called CABY-001) the figure was 20 to 50%. Same read-out and setting: with ALVEKGEFAL the figure was 20 to 50%; with ALDSTIAHL, 20 to 50%.

KMASKVTQV gave a peptide exchange yield of 20 to 50%. Still for that read-out and setting: with AIIKEIQTV the figure was 20 to 50%. On the same count and under the same terms, with DISKRIQSL the figure was 20 to 50%; with SLYKSFLQL, 20 to 50%; with NIDINNNEL, 20 to 50%.

Molecule ALLLRLFTI came in with a peptide exchange yield of 20 to 50%.

FLDGRPLTL: the peptide exchange yield lay within 20 to 50%.

As to LLDAAHASI, the peptide exchange yield fell in the range of 20 to 50%.

Take KVFELDLVTL: the peptide exchange yield lay in the range of 20 to 50%. Same read-out and setting: with ALYVQAPTV the figure was 20 to 50%; with ILHGEVNKV, 20 to 50%; with GIINKLVTV, 20 to 50%. On the same count and under the same terms, with SILTNISEV the figure was 20 to 50%. The same measure, in the same setting: for LLLLDVPTA the value was 20 to 50%. In turn, VQSGLRILL returned a peptide exchange yield of 20 to 50%. Same read-out and setting: with KTASINQNV the figure was 20 to 50%; with QIQGQVSEV, 20 to 50%. On the same count and under the same terms, for ALYSGDLHAA the value was 20 to 50%; for GLEERLYTA, 20 to 50%; for TLLPSSGLVTL, 20 to 50%. The same measure, in the same setting: for ILQDGQFLV (also called DCAF4L2-001) the value was 20 to 50%. The molecule NMADGQLHQV came in with a peptide exchange yield of 20 to 50%.

Consider SILKEDPFL, for which the peptide exchange yield fell in the range of 20 to 50%. The same measure, in the same setting: for ALLSSVAEA the value was 20 to 50%; for VLGEEQEGV, 20 to 50%. Same read-out and setting: for LLFPSDVQTL the value was 20 to 50%; for SLIEESEEL, 20 to 50%. The same measure, in the same setting: with FIAAVVEKV the figure was 20 to 50%. Molecule TLDSYLKAV (also called CYP4Z-001) came in with a peptide exchange yield of 20 to 50%. On the same count and under the same terms, for KLIYKDLVSV the value was 20 to 50%; for TLYQGLPAEV, 20 to 50%; for FLFLKEVKV, 20 to 50%.

The target in another test is T1, HLA-A*02:01. Nature of the test: UV ligand-exchange ELISA (anti-b2m); +++ = exchange yield >=50. An outline of the steps: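 Peptide–HLA-A*02:01 complexes were generated by UV-ligand exchange, in which a UV-cleavable peptide is replaced by the test peptide. Exchange yield was quantified by ELISA on streptavidin-coated plates, detecting β2m of stabilized complexes with HRP anti-β2m (2 ug/ml) and TMB read at 450 nm.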
In turn, KLLSLLEEA came in with a peptide exchange yield of 50 to 75%.

With ALYGNVQQV, the peptide exchange yield lay in the range of 50 to 75%. As for ILAEEPIYIRV, the peptide exchange yield was 50 to 75%. In the case of SLFSNIESV, the peptide exchange yield lay in the range of 50 to 75%. The same measure, in the same setting: for YLDEVAFML the value was 50 to 75%; for LLDPKTIFL (also called HAVCR1-001), 50 to 75%. In the case of KLIDEDEPLFL, the peptide exchange yield fell in the range of 50 to 75%. Regarding SLLEVNEASSV, the peptide exchange yield fell in the range of 50 to 75%.

Take QLIEKNWLL: the peptide exchange yield is 50 to 75%. Same read-out and setting: with ILGSFELQL the figure was 50 to 75%; with LLLPLELSLA, 50 to 75%. Same read-out and setting: with TLFGIQLTEA the figure was 50 to 75%. Same read-out and setting: with ALLDGALQL the figure was 50 to 75%. Regarding FVQEKIPEL, the peptide exchange yield lay in the range of 50 to 75%. Still for that read-out and setting: with KLFEKSTGL the figure was 50 to 75%. On the same count and under the same terms, for FTAEFLEKV the value was 50 to 75%. On the same count and under the same terms, for GLYPVTLVGV the value was 50 to 75%; for SLAETIFIV (also called HTR3A-001), 50 to 75%. On to VLTGQVHEL, for which the peptide exchange yield was in the range of 50 to 75%. On to ALQSFEFRV, for which the peptide exchange yield was in the range of 50 to 75%. On to FIANLPPELKA, for which the peptide exchange yield was 50 to 75%.

For the molecule SLITGQDLLSV, the peptide exchange yield was in the range of 50 to 75%.
